Target: Streptococcus pneumoniae pneumolysin, recombinant (Streptococcus pneumoniae strain R6) (UniProt Q04IN8)
Assay: ITC; chaperone in the syringe, Ply in the sample cell; 20 mM MES, 100 mM NaCl, 1 mM beta-mercaptoethanol, 10% glycerol, pH 6.5, 25 C; independent binding model

Streptococcus pneumoniae SlrA (from UniProt Q8DQG5 19-267) (enzyme)
dH: -35.6 kcal/mol
stoichiometry N: 0.84

From publication PMC11853100
